Positions count from the first letter of the chain named. In names and notes the source's numbering stands.
T1: VP16-MR LBD (Homo sapiens, UniProt P08235)
T1 construct: expressed in transfected cells; host or cells: Cos-7
T1 sequence (P08235 727-984): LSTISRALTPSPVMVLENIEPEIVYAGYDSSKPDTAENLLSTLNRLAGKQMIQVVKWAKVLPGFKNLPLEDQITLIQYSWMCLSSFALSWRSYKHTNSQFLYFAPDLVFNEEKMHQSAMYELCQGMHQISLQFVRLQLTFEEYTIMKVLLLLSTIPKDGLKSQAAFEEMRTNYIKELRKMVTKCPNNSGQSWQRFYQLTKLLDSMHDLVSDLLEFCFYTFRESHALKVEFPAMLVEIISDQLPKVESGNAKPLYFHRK

T2: purified MR/corticosterone complex (MR LBD C808S) (Homo sapiens, UniProt P08235, C808S)
T2 construct: made in house; host or cells: E. coli BL21DE3 (pET24a)
T2 sequence (P08235 727-984 C808S): T1 sequence (P08235 727-984) with C82S

B1: SRC1-4M: GAL4-DBD SRC1-4 with LXXAA mutation of the SRC1-4 motif (protein)
chain: QGEANFAPSLSPGSSMVPMPIPPPQSSLLQQTPPASGYQSPDMKAWQQGAIGNNNVFSQAVQNQPTPAQPGVYNNMSITVSMAGGNTNVQNMNPMMAQMQMSSLQMPGMNTVCPEQINDPALRHTGLYCNQLSSTDLLKTEADGTQQVQQVQVFADVQCTVNLVGGDPYLNQPGPLGTQKPTSGPQTPQAQQKSLLQQAATE
modifications: left off: large carriers; small tags and cut ends
notes: GAL4-DBD SRC1-4 with LXXAA mutation of the SRC1-4 motif
B2: SRC1-4 E1441K: GAL4-DBD SRC1-4 with E+7K mutation of the SRC1-4 motif (protein)
chain: B1 chain with A199L, A200L, E202K
modifications: left off: large carriers; small tags and cut ends
notes: GAL4-DBD SRC1-4 with E+7K mutation of the SRC1-4 motif
B3: SRC2-(M2+3): SRC2 fragment in which the 2nd LXXLL motif was mutated to LXXAA (protein)
chain: QNSPVNMNPPPLSKMGSLDSKDCFGLYGEPSEGTTGQAESSCHPGEQKETNDPNLPPAVSSERADGQSRLHDSKGQTKLLQLLTTKSDQMEPSPLASSLSDTNKDSTGSLPGSGSTHGTSLKEKHKILHRAAQDSSSPVDLAKLTAEATGKDLSQESSSTAPGSEVTIKQEPVSPKKKENALLRYLLDKDDTKDIGLPEIT
modifications: left off: small tags and cut ends; a dimerising Fc or GST
notes: SRC2 fragment in which the 2nd LXXLL motif was mutated to LXXAA
B4: PGC1α-(1+2): purified human PGC1α fragment (residues 1-220) containing both LXXLL motifs (protein)
chain: MAWDMCNQDSESVWSDIECAALVGEDQPLCPDLPELDLSELDVNDLDTDSFLGGLKWCSDQSEIISNQYNNEPSNIFEKIDEENEANLLAVLTETLDSLPVDEDGLPSFDALTDGDVTTDNEASPSSMPDGTPPPQEAEEPSLLKKLLLAPANTQLSYNECSGLSTQNHANHNHRIRTNPAIVKTENSWSNKAKSICQQQKPQRRPCSELLKYLTTNDDP
modifications: left off: small tags and cut ends; a dimerising Fc or GST
notes: purified human PGC1α fragment (residues 1-220) containing both LXXLL motifs

Columns and labels:
[1] = molecular target: T1, VP16-MR LBD; test: Mammalian two hybrid assay, pG5Luc reporter; assay type: cell-based; conditions: 10 nM corticosterone
Method: (C) Mammalian two-hybrid interaction of SRC1 with MR. GAL4-DBD were fused with the SRC1-4 motif (SRC1-4, residues 1240-1441) and two mutated forms of SRC1-4 [SRC1-4(E1441K), corresponding to E+7K mutation of the SRC1-4 motif, and SRC1-M4 (L1438A/L1439A), corresponding to the LXXAA mutation of the SRC1-4 motif], respectively. VP16 were fused with MR LBD and MR LBD (K782E). The cells were cotransfected with GAL4 and VP16 fusion constructs and pG5Luc reporter. The cells were treated with 10 nM corticosterone.
Cos-7 cells were maintained in DMEM containing 10% fetal bovine serum (FBS) and were transiently transfected using Lipofectamine 2000 (Invitrogen). 24-Well plates were plated 24 hr prior to transfection (5×10^4 cells per well). Cells were transfected in Opti-MEM with 400 ng of MMTV-Luc reporter plasmid and 400 ng of receptor expression vector (pRS vector) encoding full-length GR and MR respectively (ATCC). […] For cotransfection of MR and SRC1, 50 ng Gal4-MR LBD was transfected with 200 ng pG5Luc and various amounts of PCR3.1-SRC1 as indicated in the figure legend. 18 hours after transfection, steroids were added in DMEM supplemented with 5% Charcoal/Dextran treated FBS (Hyclone). Cells were harvested 24 hours later for luciferase assays. Luciferase data were normalized to Renilla activity as an internal control. […]

[2] = molecular target: T2, purified MR/corticosterone complex (MR LBD C808S); test: AlphaScreen peptide competition (IC50) of coactivator LXXLL motifs; assay type: binding
From the text: (D) Binding affinity of various coactivator LXXLL motifs to the purified MR/corticosterone complex as determined by IC50 values from peptide competition experiments using AlphaScreen assays. The numbering scheme of the LXXLL motifs is shown on the top of the sequences.
SRC2-(2+3) and […] SRC2 protein fragments containing 2nd and 3rd LXXLL motifs. The 2nd LXXLL motif of SRC2 was mutated to LXXAA in SRC2-(M2+3).
(G) Binding affinity of PGC1α-(1+2), PGC1α-1 and PGC1α-2 to the purified MR/corticosterone complex as determined by IC50 values from peptide competition experiments.
The fusion protein contains a His6-TAG ([…]) at the N terminus and a thrombin protease site between GST and the MR LBD. BL21DE3 cells transformed with this expression plasmid were grown in LB broth at 16° C. to an OD600 of ˜1 and induced with 0.1 mM IPTG and 50 μM corticosterone. Cells were harvested, resuspended in 400 ml extract buffer (50 mM Tris[pH8.0], 150 mM NaCl, 2 M Urea, 10% glycerol) per 24 liters of cells, and passed three times through a French Press with pressure set at […]. […] Both human PGC1α (1+2) (residues 1-220) and SRC2-(2+3) (residues 563-763) were expressed as a 6×His-GST fusion protein from the expression vector pET24a (Novagen). […]
The binding of various peptide motifs to MR was determined by AlphaScreen assays using a hexahistidine detection kit from Perkin-Elmer. […]

Row | Molecule | interaction with MR LBD [1] | other results
1 | B1 | abolished the interaction | –
2 | B2 | failed to interact | –
3 | B3 | – | decrease of binding affinity versus SRC2-(2+3) ([2]; second LXXLL motif mutated): more than 10 fold
4 | B4 | – | binding affinity to MR ([2]; compared with single motifs, FIG. 3G): much higher affinity than either motif alone

Reference: patent US20070111265A1, “Ligands for mineralocorticoid receptor (MR) and methods for screening for or designing MR ligands” (Van Andel Research Institute, priority 2005, published 2007)
